Sequences and labels used below:
B1: Pol31, accessory subunit of DNA polymerase ζ (Polζ) (natural protein, Saccharomyces cerevisiae, UniProt P46957 1-487, looked up)
chain: MDALLTKFNEDRSLQDENLSQPRTRVRIVDDNLYNKSNPFQLCYKKRDYGSQYYHIYQYRLKTFRERVLKECDKRWDAGFTLNGQLVLKKDKVLDIQGNQPCWCVGSIYCEMKYKPNVLDEVINDTYGAPDLTKSYTDKEGGSDEIMLEDESGRVLLVGDFIRSTPFITGVVVGILGMEAEAGTFQVLDICYPTPLPQNPFPAPIATCPTRGKIALVSGLNLNNTSPDRLLRLEILREFLMGRINNKIDDISLIGRLLICGNSVDFDIKSVNKDELMISLTEFSKFLHNILPSISVDIMPGTNDPSDKSLPQQPFHKSLFDKSLESYFNGSNKEILNLVTNPYEFSYNGVDVLAVSGKNINDICKYVIPSNDNGESENKVEEGESNDFKDDIEHRLDLMECTMKWQNIAPTAPDTLWCYPYTDKDPFVLDKWPHVYIVANQPYFGTRVVEIGGKNIKIISVPEFSSTGMIILLDLETLEAETVKIDI
notes: Pol31, Saccharomyces cerevisiae, accessory subunit of Polζ, full-length (residues 1-487); source: expressed in yeast from plasmids pBJ1462 and pBJ1524, purified as the Polζ holoenzyme
B2: Pol32, accessory subunit of DNA polymerase ζ (Polζ) (natural protein, Saccharomyces cerevisiae, UniProt P47110 1-350, looked up)
chain: MDQKASYFINEKLFTEVKPVLFTDLIHHLKIGPSMAKKLMFDYYKQTTNAKYNCVVICCYKDQTIKIIHDLSNIPQQDSIIDCFIYAFNPMDSFIPYYDIIDQKDCLTIKNSYELKVSESSKIIERTKTLEEKSKPLVRPTARSKTTPEETTGRKSKSKDMGLRSTALLAKMKKDRDDKETSRQNELRKRKEENLQKINKQNPEREAQMKELNNLFVEDDLDTEEVNGGSKPNSPKETDSNDKDKNNDDLEDLLETTAEDSLMDVPKIQQTKPSETEHSKEPKSEEEPSSFIDEDGYIVTKRPATSTPPRKPSPVVKRALSSSKKQETPSSNKRLKKQGTLESFFKRKAK
notes: Pol32, Saccharomyces cerevisiae, accessory subunit of Polζ, full-length (residues 1-350); The full-length protein was in the sample; also called Pol32N; source: expressed in yeast from plasmids pBJ1462 and pBJ1524, purified as the Polζ holoenzyme

For data set [1], the target named is T1, Polζ holoenzyme (Rev3-Rev7-Pol31-Pol32) (Saccharomyces cerevisiae, UniProt P14284).
T1 construct: full-length subunits, holoenzyme expressed in yeast from plasmids pBJ1462 and pBJ1524; pentameric complex with two Rev7 (Rev7A, Rev7B); with DNA polymerase zeta processivity subunit; DNA polymerase delta small subunit; DNA polymerase delta subunit 3
T1 sequence (P14284 whole entry, one chain of several): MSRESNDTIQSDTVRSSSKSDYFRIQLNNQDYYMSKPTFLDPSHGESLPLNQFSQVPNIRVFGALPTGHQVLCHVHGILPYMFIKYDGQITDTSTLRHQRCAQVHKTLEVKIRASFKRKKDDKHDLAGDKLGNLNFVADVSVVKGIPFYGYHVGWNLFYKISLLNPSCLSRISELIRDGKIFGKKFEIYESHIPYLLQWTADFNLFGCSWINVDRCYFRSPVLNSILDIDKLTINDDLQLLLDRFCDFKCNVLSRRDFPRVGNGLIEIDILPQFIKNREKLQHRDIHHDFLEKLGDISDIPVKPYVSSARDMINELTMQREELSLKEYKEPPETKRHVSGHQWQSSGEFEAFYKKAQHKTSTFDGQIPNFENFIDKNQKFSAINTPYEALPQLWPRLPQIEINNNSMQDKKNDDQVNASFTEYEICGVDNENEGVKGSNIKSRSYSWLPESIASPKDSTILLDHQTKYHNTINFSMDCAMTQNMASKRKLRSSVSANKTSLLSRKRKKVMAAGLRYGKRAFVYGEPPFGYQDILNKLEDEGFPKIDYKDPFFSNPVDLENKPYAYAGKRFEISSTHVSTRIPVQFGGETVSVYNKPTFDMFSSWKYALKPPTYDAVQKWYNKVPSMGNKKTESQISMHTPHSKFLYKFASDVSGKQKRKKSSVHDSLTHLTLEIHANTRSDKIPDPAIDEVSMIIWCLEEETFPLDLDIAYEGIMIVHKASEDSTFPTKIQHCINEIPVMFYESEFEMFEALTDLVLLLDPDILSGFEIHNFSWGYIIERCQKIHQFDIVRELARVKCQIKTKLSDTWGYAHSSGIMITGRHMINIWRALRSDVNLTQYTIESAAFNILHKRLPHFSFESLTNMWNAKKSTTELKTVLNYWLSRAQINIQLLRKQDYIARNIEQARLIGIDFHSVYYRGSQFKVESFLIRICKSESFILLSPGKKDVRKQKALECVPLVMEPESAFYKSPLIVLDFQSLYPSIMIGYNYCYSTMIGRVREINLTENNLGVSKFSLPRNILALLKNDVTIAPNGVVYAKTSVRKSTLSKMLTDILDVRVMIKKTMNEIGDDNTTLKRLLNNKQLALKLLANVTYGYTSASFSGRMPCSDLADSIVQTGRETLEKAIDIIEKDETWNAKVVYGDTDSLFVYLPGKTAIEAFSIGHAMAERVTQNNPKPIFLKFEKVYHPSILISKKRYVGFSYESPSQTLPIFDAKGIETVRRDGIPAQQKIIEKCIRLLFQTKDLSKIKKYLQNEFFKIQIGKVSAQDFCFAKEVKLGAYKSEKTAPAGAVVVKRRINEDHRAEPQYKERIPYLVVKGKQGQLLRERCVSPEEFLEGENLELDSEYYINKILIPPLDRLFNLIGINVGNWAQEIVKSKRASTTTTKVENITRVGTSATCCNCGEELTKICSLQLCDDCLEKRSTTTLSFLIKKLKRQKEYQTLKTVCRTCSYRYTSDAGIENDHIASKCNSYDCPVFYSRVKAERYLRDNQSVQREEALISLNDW
Briefly: cryo-EM structure, […] Å. The format is binding. As to conditions: ternary complex with dideoxy-terminated A:C mismatched primer-template DNA, templating G; 1 mM dCTP; CaCl2 (Ca2+ metal B); Rev3 active site, fingers open.

Data set [2] addresses T2, Rev3, catalytic subunit of DNA polymerase ζ (Polζ) (Saccharomyces cerevisiae, UniProt P14284 1-1504).
T2 construct: Rev3, Saccharomyces cerevisiae, catalytic subunit of Polζ, full-length (residues 1-1,504); also called catalytic Rev3; source: expressed in yeast from plasmids pBJ1462 and pBJ1524, purified as the Polζ holoenzyme
Nature of the data set: cryo-EM structure; Polζ holoenzyme incubated in a CaCl2 supplemented buffer with palindromic DNA (1.5 molar excess) with an A:C mismatch at the primer terminus, 1 mM dCTP; nominal resolution 3.05 Å. As to conditions: both partners purified.

The target in data set [3] is B1. Described as above. The following applies: both partners purified.
In the data set “Rev3 (Polζ catalytic …)” the target is Rev3 (Polζ catalytic subunit);Rev7;Pol31;Pol32 (Saccharomyces cerevisiae;Saccharomyces …, UniProt P14284;P38927;P46957;P47110 1-1504;1-245;1-487;1-350, |||). Briefly: cryo-EM structure (3.05 Å); 1 mM dCTP, CaCl2; metal ion B; CaCl2-supplemented buffer, DNA in 1.5 molar excess, 1 mM dCTP; salt, pH and temperature not given. As to conditions: protein: recombinant;recombinant;recombinant;recombinant; tags: ;;;; copies: 1;2;1;1; self-annealed palindrome, 2 copies of one strand; 5' overhang 5 nt (TAATG, templating G); A6:C30 mismatch at primer terminus; central A:A.
Chain of Rev3 (Polζ catalytic subunit);Rev7;Pol31;Pol32 (P14284 whole entry, one chain of several): as above

Data set [4] concerns the target B2. Briefly: cryo-EM structure; Polζ holoenzyme incubated in a CaCl2 supplemented buffer with palindromic DNA (1.5 molar excess) with an A:C mismatch at the primer terminus, 1 mM dCTP; nominal resolution 3.05 Å. The following applies: both partners purified.

T2 sequence (P14284 whole entry, the tested form may be a part): as the sequence (P14284 whole entry, one chain of several) above

`Nc1ccn([C@H]2C[C@H](O)[C@@H](COP(=O)(O)OP(=O)(O)OP(=O)(O)O)O2)c(=O)n1` [dCTP]: in data set [1], the “cryo-EM structure, 3.05 Å” value is on record as “Rev3 is observed with the incoming nucleotide dCTP (position P0) opposite the templating base G”.
As to B1, in data set [2], the binding result is recorded as “binds”.
With B2, the binding result in data set [3] is given as “binds”.

B3: A:C mismatched palindromic template-primer (dsDNA)
DNA 1: TAATGATAGGGGAGGGAATCCCTCCCCTAC
DNA 2: TAATGATAGGGGAGGGAATCCCTCCCCTAC
modifications: 3'-dideoxy C terminus
As to B3, the binding result in the data set with Rev3 (Polζ catalytic …) is “binds”.

B4: Rev7, accessory subunit of DNA polymerase ζ (Polζ) (natural protein, Saccharomyces cerevisiae, UniProt P38927 1-245, looked up)
chain: MNRWVEKWLRVYLKCYINLILFYRNVYPPQSFDYTTYQSFNLPQFVPINRHPALIDYIEELILDVLSKLTHVYRFSICIINKKNDLCIEKYVLDFSELQHVDKDDQIITETEVFDEFRSSLNSLIMHLEKLPKVNDDTITFEAVINAIELELGHKLDRNRRVDSLEEKAEIERDSNWVKCQEDENLPDNNGFQPPKIKLTSLVGSDVGPLIIHQFSEKLISGDDKILNGVYSQYEEGESIFGSLF
notes: Rev7, Saccharomyces cerevisiae, accessory subunit of Polζ, full-length (residues 1-245); Two copies (Rev7A and Rev7B) stand in the pentameric holoenzyme; also called Rev7B; source: expressed in yeast from plasmids pBJ1462 and pBJ1524, purified as the Polζ holoenzyme
As to B4, the binding result in data set [2] and in data set [4] was “binds” in each case.

The record behind these values is PMC8881453, “Cryo-EM structure of translesion DNA synthesis polymerase ζ with a base pair mismatch” (Nature Communications, 2022).
